# Data published in the RNAGym collection of RNA variant scans (doi:10.7554/elife.80360).
# B1: Hairpin Ribozyme (parent)
# chain: GUCCUCUUUCACGUGCGCGUGAAAGAGAGAAGUGAACCAGAGAAACACACGUUGUGGUAUAUUACCUGGUA
# Variants of: B1
# Experiment: self-cleavage, relative activity (ratio to wild type); higher = more cleavage; co-transcriptional
row,Variant,self-cleavage
1,GUCCUCUUUCACGUACGCGUGAAAGAGAGAAGUGAACCAGAGAAAUACACGUUGUGGUAUAUUACCUGGUA [G15A C46U],0.147
2,GUCCUCUUUCACGUCCGCGUGAAAGAGAGAAGUGAACCAGAGAAACACACGUUGUGGUAUAUUACCUGGUG [G15C A71G],0.98
3,GUCCUCUUUCACGUACGCGUGAAAGAGAGAAGUGAACCAGAGAAACACACGUUGUGGUAUAUUACCGGGUA [G15A U67G],0.234
4,GUCCUCUUUCACGUACGCGUGAAAGAGAGAAGUGAACCAGAGAAACACACGUUGUGGUAUAUUACCCGGUA [G15A U67C],0.24
5,GUCCUCUUUCACGUCCGCGUGAAAGAGAGAAGUGAACCAGAGACACACACGUUGUGGUAUAUUACCUGGUA [G15C A44C],0.0713
6,GUCCUCUUUCACGUCCGCGUGAAAGAGAGAAGUGAACCAGAGAUACACACGUUGUGGUAUAUUACCUGGUA [G15C A44U],0.18
7,GUCCUCUUUCACGUACGCGUGAAAGAGAGAAGUGAACCAGAGAAACACACGAUGUGGUAUAUUACCUGGUA [G15A U52A],0.863
8,GUCCUCUUUCACGUCCGCGUGAAAGAGAGAAGUGAACCAGAGAAACAUACGUUGUGGUAUAUUACCUGGUA [G15C C48U],0.112
9,GUCCUCUUUCACGUCCGCGUGAAAGUGAGAAGUGAACCAGAGAAACACACGUUGUGGUAUAUUACCUGGUA [G15C A26U],0.777
10,GUCCUCUUUCACGUCCGCGUGAAAGAGAGAAAUGAACCAGAGAAACACACGUUGUGGUAUAUUACCUGGUA [G15C G32A],0.263
11,GUCCUCUUUCACGUCCGCGUGAAAGAGAGAACUGAACCAGAGAAACACACGUUGUGGUAUAUUACCUGGUA [G15C G32C],0.0609
12,GUCCUCUUUCACGUACGCGUGAAAGAGAGAAGUGAACCAGAGAAACACACAUUGUGGUAUAUUACCUGGUA [G15A G51A],1.21
13,GUCCUCUUUCACGUCCGCGUGAAAGAGAGAAGUGUACCAGAGAAACACACGUUGUGGUAUAUUACCUGGUA [G15C A35U],0.703
14,GUCCUCUUUCACGUCCGCGUGAAAGAGAGAAGUGCACCAGAGAAACACACGUUGUGGUAUAUUACCUGGUA [G15C A35C],0.628
15,GUCCUCUUUCACGUACGCGUGAAAGAGAGAAGUGAACCAGAGAAACACAUGUUGUGGUAUAUUACCUGGUA [G15A C50U],0.356
16,GUCCUCUUUCACGUACGCGUGAAAGAGAGAAGUGAACCAGAGAAACACAAGUUGUGGUAUAUUACCUGGUA [G15A C50A],0.28
17,GUCCUCUUUCACGUACGCGUGAAAGAGAGAAGUGAACCAGAGAAACACAGGUUGUGGUAUAUUACCUGGUA [G15A C50G],0.219
18,GUCCUCUUUCACGUACGCGUGAAAGAGAGAAGUGAACCAGAGAAACACACGUUGUGGCAUAUUACCUGGUA [G15A U58C],1.03
19,GUCCUCUUUCACGUCCGCGUGAAAGAGAGAAGUGAACCAGAGCAACACACGUUGUGGUAUAUUACCUGGUA [G15C A43C],0.225

row,Variant,self-cleavage
1,GUCCUCUUUCACGUCCGCGUGAAGGAGAGAAGUGAACCAGAGAAACACACGUUGUGGUAUAUUACCUGGUA [G15C A24G],0.892
2,GUCCUCUUUCACGUCCGCGUGAACGAGAGAAGUGAACCAGAGAAACACACGUUGUGGUAUAUUACCUGGUA [G15C A24C],1.15
3,GUCCUCUUUCACGUACGCGUGAAAGAGAGAAGUGAACCAGAGAAACACACGUCGUGGUAUAUUACCUGGUA [G15A U53C],0.907
4,GUCCUCUUUCACGUACGCGUGAAAGAGAGAAGUGAACCAGAGAAACACACGUUGUGGUAUAUUACCUGCUA [G15A G69C],0.31
5,GUCCUCUUUCACGUACGCGUGAAAGAGAGAAGUGAACCAGAGAAACACACGUUGUAGUAUAUUACCUGGUA [G15A G56A],0.135
6,GUCCUCUUUCACGUACGCGUGAAAGAGAGAAGUGAACCAGAGAAACACACGUUGUCGUAUAUUACCUGGUA [G15A G56C],0.172
7,GUCCUCUUUCACGUACGCGUGAAAGAGAGAAGUGAACCAGAGAAACACACGUUGUGGUAUAUUAUCUGGUA [G15A C65U],0.235
8,GUCCUCUUUCACGUACGCGUGAAAGAGAGAAGUGAACCAGAGAAACACACGUUGUGGUAUAUUAGCUGGUA [G15A C65G],0.326
9,GUCCUCUUUCACGUCCGCGUGAAAGAGAGAAGUGAACCAGAGAAACGCACGUUGUGGUAUAUUACCUGGUA [G15C A47G],0.108
10,GUCCUCUUUCACGUCCGCGUGAAAGAGAGAAGUGAAUCAGAGAAACACACGUUGUGGUAUAUUACCUGGUA [G15C C37U],0.592
11,GUCCUCUUUCACGUCCGCGUGAAAGAGAGAAGUGAAACAGAGAAACACACGUUGUGGUAUAUUACCUGGUA [G15C C37A],0.316
12,GUCCUCUUUCACGUACGCGUGAAAGAGAGAAGUGAACCAGAGAAACACACGUUGAGGUAUAUUACCUGGUA [G15A U55A],0.146
13,GUCCUCUUUCACGUACGCGUGAAAGAGAGAAGUGAACCAGAGAAACACACGUUGGGGUAUAUUACCUGGUA [G15A U55G],0.215
14,GUCCUCUUUCACGUACGCGUGAAAGAGAGAAGUGAACCAGAGAAACACACGUUGUGGUAUACUACCUGGUA [G15A U62C],0.214
15,GUCCUCUUUCACGUCGGCGUGAAAGAGAGAAGUGAACCAGAGAAACACACGUUGUGGUAUAUUACCUGGUA [G15C C16G],1.06
16,GUCCUCUUUCACGUCCGCGUGAAAGAGAGAAGUGAACCAGAGAAACACACGUUGUGGUAUAUUACUUGGUA [G15C C66U],0.555
17,GUCCUCUUUCACGUACACGUGAAAGAGAGAAGUGAACCAGAGAAACACACGUUGUGGUAUAUUACCUGGUA [G15A G17A],0.87
18,GUCCUCUUUCACGUACGCGUGAAAGAGAGAAGUCAACCAGAGAAACACACGUUGUGGUAUAUUACCUGGUA [G15A G34C],1.23
19,GUCCUCUUUCACGUCCGCGUGAAAGAGAAAAGUGAACCAGAGAAACACACGUUGUGGUAUAUUACCUGGUA [G15C G29A],0.148
